Consider 32 molecules from patent publication US20260242478A1 (published 2026).

Test [1] has as its target Anti-CD28 Fab (SEQ ID NOs: 696, 697). Kind of test: phage binding ELISA; biotinylated anti-CD28 Fab on neutravidin plate, clonal phage supernatant, anti-M13 HRP detection.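 Note: wells pretreated with blocking buffer, either plus or minus CD28 antigen, then given crude phage supernatant briefly without washing in between, then washed before anti-M13 HRP readout.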 On the technique in general: In an ELISA, binding on a coated surface is turned into a signal by an enzyme label.
Target sequence in this assay (VH, as listed by the source, chain 1 of 2): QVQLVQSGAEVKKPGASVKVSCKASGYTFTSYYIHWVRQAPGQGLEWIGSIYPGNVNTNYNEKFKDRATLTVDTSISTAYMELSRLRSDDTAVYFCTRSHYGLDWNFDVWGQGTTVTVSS
Target sequence in this assay (VL, as listed by the source, chain 2 of 2): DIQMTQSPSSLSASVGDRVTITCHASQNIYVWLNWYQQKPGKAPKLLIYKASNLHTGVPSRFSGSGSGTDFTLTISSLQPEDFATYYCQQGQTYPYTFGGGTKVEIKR
Experimental: (§1) Clonal phage were harvested as crude supematants and screened via standard ELISAs. […] Prior to the addition of clonal phage, wells were incubated with blocking buffer and CD28 antigen or blocking buffer alone. Without washing or aspirating, clonal phage supematants were then added to the wells and incubated for a short time. Wells were then washed followed by detection of bound phage using a horse radish conjugated anti-M13 antibody.
Test [2] has the same target. Kind of test: phage binding ELISA; Fab-coated wells pre-incubated with CD28 antigen as competitor, anti-M13 HRP detection.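 Note: crude clonal phage supernatants added without washing after the CD28 pre-incubation, with wells given blocking buffer only (no CD28) as the reference, bound phage read after washing.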
Target sequence in this assay (VH, as listed by the source, chain 1 of 2): as the sequence (VH, as listed by the source, chain 1 of 2) above
Target sequence in this assay (VL, as listed by the source, chain 2 of 2): as the sequence (VL, as listed by the source, chain 2 of 2) above
Experimental: (§2) Clonal phage were harvested as crude supematants and screened via standard ELISAs. […] Prior to the addition of clonal phage, wells were incubated with blocking buffer and CD28 antigen or blocking buffer alone. Without washing or aspirating, clonal phage supematants were then added to the wells and incubated for a short time. Wells were then washed followed by detection of bound phage using a horse radish conjugated anti-M13 antibody. Clonal phage of interest were then sent for sequence analysis.
For test [3] the target is unchanged. Kind of test: phage binding ELISA; biotinylated anti-CD28 Fab on neutravidin plate, clonal phage detected with anti-M13 HRP.
Target sequence in this assay (VH, as listed by the source, chain 1 of 2): as the sequence (VH, as listed by the source, chain 1 of 2) above
Target sequence in this assay (VL, as listed by the source, chain 2 of 2): as the sequence (VL, as listed by the source, chain 2 of 2) above
Experimental: as §1
Test [4] has the same target. The test is described as follows: phage binding ELISA; anti-CD28 Fab on plate pre-incubated with CD28 antigen as competitor.
Target sequence in this assay (VH, as listed by the source, chain 1 of 2): as the sequence (VH, as listed by the source, chain 1 of 2) above
Target sequence in this assay (VL, as listed by the source, chain 2 of 2): as the sequence (VL, as listed by the source, chain 2 of 2) above
Experimental: as §1
Test [5] deals with T1, Anti-CD28 Fab (SEQ ID NOs: 696, 697).
T1 construct: In the phage ELISA the Fab was biotinylated and captured on neutravidin coated plates
Kind of test: phage binding ELISA; clonal phage on plate-captured biotinylated anti-CD28 Fab.
T1 sequence (VH, as listed by the source, chain 1 of 2): as the sequence (VH, as listed by the source, chain 1 of 2) above
T1 sequence (VL, as listed by the source, chain 2 of 2): as the sequence (VL, as listed by the source, chain 2 of 2) above
Experimental: as §1

For test [6] the target is unchanged. The test is described as follows: phage binding ELISA; clonal phage on plate-captured anti-CD28 Fab pre-incubated with CD28 antigen (competitor).
Target sequence in this assay (VH, as listed by the source, chain 1 of 2): as the sequence (VH, as listed by the source, chain 1 of 2) above
Target sequence in this assay (VL, as listed by the source, chain 2 of 2): as the sequence (VL, as listed by the source, chain 2 of 2) above
Experimental: as §2

Where no end group is shown, it is not given here.

For TCAAGATYEWPYCF [Phage-1427], the “Anti-CD28 Fab (SEQ ID NOs: 696, 697) signal” value in test [1] amounted to 1.96. For the same molecule, the “Anti-CD28 Fab signal in the presence of CD28” value (shortened to “Anti-CD28 Fab signal”) in test [2] amounted to 0.06.
As for TCAAGASYQWPLCF [Phage-1462 peptide (Peptide-92 library, SEQ ID NO: 1758)], in test [3], the “Anti-CD28 Fab (SEQ ID NOs: 696, 697) signal” value was 1.79. Also, in test [4], the “Anti-CD28 Fab signal” value was 0.07.
Consider WCAAVFSYTWSPCL [Phage-1428], for which the “Anti-CD28 Fab (SEQ ID NOs: 696, 697) signal” value in test [1] came out at 1.96. The “Anti-CD28 Fab signal” value in test [2] worked out at 0.07.
For TCSAGFHYEWPRCL [Phage-1410 (Peptide-92 library clone)], the “Anti-CD28 Fab (SEQ ID NOs: 696, 697) signal” value in test [5] came out at 2.02. The “Anti-CD28 Fab signal” value in test [6] worked out at 0.05.
For HCAAGAHYPWPACL [Phage-1415 (Peptide-92 library clone)] the same measures were 2 and 0.12.
SCAAVFSYSWPMCF [Phage-1420]: in test [1], the “Anti-CD28 Fab (SEQ ID NOs: 696, 697) signal” value amounted to 1.99. In addition, the “Anti-CD28 Fab signal” value in test [2] is 0.06.
For TCAAGAHYTWPECF [Phage-1419] the same measures were 1.99 and 0.07.
In the case of SCAAGATYSWPMCL [Phage-1421], the “Anti-CD28 Fab (SEQ ID NOs: 696, 697) signal” value in test [1] worked out at 1.99. In addition, the “Anti-CD28 Fab signal” value in test [2] was found to be 0.09.
For the molecule LCKPGVPYQWPTCL [Phage-1465 peptide (Peptide-92 library, SEQ ID NO: 1761)], the “Anti-CD28 Fab (SEQ ID NOs: 696, 697) signal” value in test [3] worked out at 1.78. Also, in test [4], the “Anti-CD28 Fab signal” value worked out at 0.07.
As for LCAAGFKYPWPLCL [Phage-1411 (Peptide-92 library clone)], the “Anti-CD28 Fab (SEQ ID NOs: 696, 697) signal” value in test [5] amounted to 2.02. Also, the “Anti-CD28 Fab signal” value in test [6] is 0.07.
For the molecule LCAEFFNYPWPLCL [Phage-1422], the “Anti-CD28 Fab (SEQ ID NOs: 696, 697) signal” value in test [1] turned out to be 1.98. Moreover, in test [2], the “Anti-CD28 Fab signal” value was 0.06.
For QCSAGAAWPWPFCL [Phage-1423], in that order: 1.97 and 0.08.
In the case of LCEEFADYPWPMCL [Phage-1412 (Peptide-92 library clone)], the “Anti-CD28 Fab (SEQ ID NOs: 696, 697) signal” value in test [5] was found to be 2.01. For the same molecule, the “Anti-CD28 Fab signal” value in test [6] was determined as 0.06.
For TCAAGAAYTWPACF [Phage-1429], the “Anti-CD28 Fab (SEQ ID NOs: 696, 697) signal” value in test [1] came to 1.96. Further, the “Anti-CD28 Fab signal” value in test [2] was found to be 0.06.
In the case of TCAAGATYEWPTCL [Phage-1430], the “Anti-CD28 Fab (SEQ ID NOs: 696, 697) signal” value in test [1] came to 1.96. Also, the “Anti-CD28 Fab signal” value in test [2] came to 0.08.
Consider TCAAGAMWHWPVCL [Phage-1409 (Peptide-92 library clone)], for which the “Anti-CD28 Fab (SEQ ID NOs: 696, 697) signal” value in test [5] worked out at 2.03. The “Anti-CD28 Fab signal” value in test [6] was 0.09.
For LCAAGASYPWPTCL [Phage-1414 (Peptide-92 library clone)], in that order: 2 and 0.1.
As to MCSAGANYPWPWCL [Phage-1426], the “Anti-CD28 Fab (SEQ ID NOs: 696, 697) signal” value in test [1] was found to be 1.97. Moreover, the “Anti-CD28 Fab signal” value in test [2] was 0.08.
In the case of MCTAGALYNWPTCL [Phage-1466 peptide (Peptide-92 library, SEQ ID NO: 1762)], the “Anti-CD28 Fab (SEQ ID NOs: 696, 697) signal” value in test [3] was 1.78. The “Anti-CD28 Fab signal” value in test [4] was found to be 0.09.
On to TCAAGASYAWPWCL [Phage-1407 (Peptide-92 library clone)], for which the “Anti-CD28 Fab (SEQ ID NOs: 696, 697) signal” value in test [5] stood at 2.03. The “Anti-CD28 Fab signal” value in test [6] was 0.08.
With SCSAGFHYPWPICL [Phage-1464 peptide (Peptide-92 library, SEQ ID NO: 1760)], the “Anti-CD28 Fab (SEQ ID NOs: 696, 697) signal” value in test [3] was determined as 1.79. For the same molecule, the “Anti-CD28 Fab signal” value in test [4] is 0.07.
Take MCAAGATYPWPLCL (cysteine pairing not given here; also: fused to phage pIII protein) [Phage-1417]: the “Anti-CD28 Fab (SEQ ID NOs: 696, 697) signal” value in test [1] was 1.99. In addition, the “Anti-CD28 Fab signal” value in test [2] worked out at 0.07.
MCSAGAMYPWPTCL [Phage-1406 (Peptide-92 library clone)]: the “Anti-CD28 Fab (SEQ ID NOs: 696, 697) signal” value in test [5] worked out at 2.04. Further, in test [6], the “Anti-CD28 Fab signal” value amounted to 0.08.
Consider MCAAGAHYTWPTCL (cysteine pairing not given here; also: fused to phage pIII protein) [Phage-1424], for which, in test [1], the “Anti-CD28 Fab (SEQ ID NOs: 696, 697) signal” value turned out to be 1.97. For the same molecule, the “Anti-CD28 Fab signal” value in test [2] came to 0.07.
On to YCSAGAQWPWPICL [Phage-1461 peptide (Peptide-92 library, SEQ ID NO: 1757)], for which the “Anti-CD28 Fab (SEQ ID NOs: 696, 697) signal” value in test [3] was 1.79. In test [4], the “Anti-CD28 Fab signal” value turned out to be 0.08.
Turning to TCAAGANYPWPYCL [Phage-1416 (Peptide-92 library clone)], the “Anti-CD28 Fab (SEQ ID NOs: 696, 697) signal” value in test [5] stood at 1.99. Moreover, the “Anti-CD28 Fab signal” value in test [6] worked out at 0.14.
Turning to SCAAGASYSWPACF [Phage-1463 peptide (Peptide-92 library, SEQ ID NO: 1759)], the “Anti-CD28 Fab (SEQ ID NOs: 696, 697) signal” value in test [3] was 1.79. Besides, the “Anti-CD28 Fab signal” value in test [4] came out at 0.07.
Consider TCSAGASWAWPWCF [Phage-1408 (Peptide-92 library clone)], for which the “Anti-CD28 Fab (SEQ ID NOs: 696, 697) signal” value in test [5] amounted to 2.03. The “Anti-CD28 Fab signal” value in test [6] turned out to be 0.08.
As for TCSAGATYEWPWCM [Phage-1425], the “Anti-CD28 Fab (SEQ ID NOs: 696, 697) signal” value in test [1] was 1.97. The “Anti-CD28 Fab signal” value in test [2] is 0.07.
Take TCAAGATYKWPACL [Phage-1405 (Peptide-92 library clone)]: in test [5], the “Anti-CD28 Fab (SEQ ID NOs: 696, 697) signal” value was found to be 2.05. Besides, the “Anti-CD28 Fab signal” value in test [6] is 0.09.
For the molecule TCAAGATYSWPMCF [Phage-1413 (Peptide-92 library clone)], in test [5], the “Anti-CD28 Fab (SEQ ID NOs: 696, 697) signal” value was 2. Moreover, in test [6], the “Anti-CD28 Fab signal” value is 0.07.
For the molecule TCAAGATYSWPWCF [Phage-1418], the “Anti-CD28 Fab (SEQ ID NOs: 696, 697) signal” value in test [1] worked out at 1.99. Also, in test [2], the “Anti-CD28 Fab signal” value was found to be 0.07.
